Measured values as given in patent US20240317846A1 (priority 2021, published 2024).
Where “and” joins values, the source holds several entries; their conditions need not be identical. Identical values can stand only once. Entries after “also recorded” stand apart in the source; their conditions may differ. Like-named read-outs stand apart in the source and are kept apart here. Marks after values point to notes of the source that are not given here.

Assays:
COVID-19 [1] = settings: cited from earlier work; for Mean days to discharge: published cohorts; for Median days to discharge: published lopinavir-ritonavir cohort
COVID-19 [2] = settings: RECOVERY trial; cited from earlier work
[3] = Four completed clinical trials (healthy volunteers, asthma, rheumatoid arthritis, chronic myelomonocytic leukemia); type: in vivo, human; settings: 113 individuals received lenzilumab
[4] = test system: severe and critical COVID-19 pneumonia
[5] = test system: COVID-19 associated chronic ARDS; type: in vivo, human
Experimental: Hospitalized subject with confirmed COVID-19 pneumonia and established risk factors for poor outcomes was treated in the ICU for 12 weeks using standard supportive care for chronic acute respiratory distress syndrome (ARDS). […] Patient characteristics, clinical and laboratory outcomes, and adverse events were recorded through duration of hospitalization.

[6] = test system: severe COVID-19 pneumonia; settings: for Time to Recovery: placebo 8
SARS-CoV-2 infection = type: in vivo, human; settings: paper examples
[7] = test system: severe COVID-19 pneumonia
[8] = target: glycosylated human GM-CSF (Homo sapiens, UniProt P04141); assay: Binding affinity for GM-CSF
glycosylated human GM-CSF, sequence (P04141 18-144): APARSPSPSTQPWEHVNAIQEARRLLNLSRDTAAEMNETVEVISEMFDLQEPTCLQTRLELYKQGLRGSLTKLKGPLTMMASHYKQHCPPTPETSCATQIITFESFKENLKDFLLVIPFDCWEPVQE

[9] = Pre-clinical toxicology program; type: in vivo; settings: data not shown
[10] = one patient, 48 hours post-lenzilumab vs pretreatment
[11] = lenzilumab alone or in the combination of the example
[12] = Lenzilumab group n = 12, control 11
[13] = repeated measures ANOVA, P<0.001

Tocilizumab: anti-IL6 receptor monoclonal antibody
Range of days to discharge (COVID-19 [1]; 2 patients not discharged): (10-19)* days
Mean days to discharge (COVID-19 [1]): 13.5 days
Increased likelihood of survival (COVID-19 [2]): 14%
Increased likelihood of survival without IMV (COVID-19 [2]): 18%
Survival, Hazard Ratio (COVID-19 [2]): 1.14
Ventilator-Free Survival, Hazard Ratio (COVID-19 [2]): 1.18

lopinavir and ritonavir [Lopinavir/Ritonavir]
Mean days to discharge (COVID-19 [1]): 13 days
Median days to discharge (COVID-19 [1]): 13** days
Median days to discharge (COVID-19 [1]; listed as Lopinavir-Ritonavir): 13 days

B1: Lenzilumab: first-in-class Humaneered recombinant monoclonal antibody targeting human GM-CSF, derived from mouse antibody LMM102 (antibody, chains of the INN, looked up, V domains shown)
VH: QVQLVQSGAEVKKPGASVKVSCKASGYSFTNYYIHWVRQAPGQRLEWMGWINAGNGNTKYSQKFQGRVTITRDTSASTAYMELSSLRSEDTAVYYCVRRQRFPYYFDYWGQGTLVTVSS
VL: EIVLTQSPATLSVSPGERATLSCRASQSVGTNVAWYQQKPGQAPRVLIYSTSSRATGITDRFSGSGSGTDFTLTISRLEPEDFAVYYCQQFNKSPLTFGGGTKVEIK
Safety in completed clinical development studies [3]: No treatment emergent serious adverse events (SAEs) or Suspected Unexpected Serious Adverse Reactions (SUSARSs); also recorded: very well tolerated
Median time to discharge post-lenzilumab ([4]; 11 discharged patients): 5 days
Infusion reactions ([4]; 12 patients): no infusion reactions
Median time to a 2-point clinical improvement ([4]; 12 patients): 5 days
Patients discharged ([4]; 12 patients): 11 of 12
Patients discharged on home oxygen ([4]; 12 patients): 42%
Patients who required invasive mechanical ventilation ([4]; 12 patients): 8.3%
Clinical improvement of at least 2 points on the 8-point ordinal clinical endpoints scale, proportion of patients ([4]; 12 patients, 600 mg IV every 8 h x3): 92% and 91.7%
Mean IL-6 on day 3 following lenzilumab ([4]; baseline 26.8 pg/mL): 16.1 pg/mL
Mean CRP on day 3 following lenzilumab ([4]; baseline 137.3 mg/L): 51.2 mg/L
Absolute lymphocyte count on day 3 ([4]; baseline 0.89): 1.14e+09 L⁻¹
Mean absolute neutrophil count on day 3 post lenzilumab ([4]; baseline 5.1): 4.8e+09 L⁻¹
Mean hemoglobin on day 3 post lenzilumab ([4]; baseline 12.9): 11.4 g/dL
Mean temperature at day 3 ([4]; baseline 37.95): 36.97
Proportion of patients with SpO2/FiO2<315 at the end of observation ([4]; baseline 67%): 8%
Mean platelet count on day 3 post lenzilumab ([4]; baseline 217.7): 2.618e+11 L⁻¹
D-dimer after lenzilumab ([4]; individual patients 2 and 4): 1507 ng/mL and 1802 ng/mL
Ferritin after lenzilumab, at discharge ([4]; individual patients 3 and 5): 571 µg/L and 1223 µg/L
Patients whose SpO2/FiO2 improved to >315 on day 1 post-lenzilumab ([4]; of 8 patients with SpO2/FiO2<315 at baseline): four
Patients with a 2-point improvement on 8-point ordinal scale ([4]; of 12 patients): 1 patient
Patients with ≥3-point improvement on 8-point ordinal scale ([4]; of 12 patients): 10 patients
Cytokines involved in cytokine storm (G-CSF, MDC, GM-CSF, IL-1α, IFN-γ, IL-7, FLT-3L, IL-1rα, IL-6, IL-12p70) [4, 10]: significant reduction
LDH after lenzilumab ([4]; patient 4, hospital day 3): 388 U/L
Range of days to discharge ([4]; patient 9 pending): (3-14)*** days
Patients requiring mechanical invasive ventilation ([4]; patients 1-5): None
Time to fever resolution after lenzilumab administration ([4]; patients febrile at baseline): ≤ 48 h
Time to clinical two point improvement, faster than comparator antivirals ([4]; vs Remdesivir, Lopinavir-Ritonavir, Tocilizumab cohorts): more than 50%
Oxygen demand one week post lenzilumab ([5]; person, lenzilumab on week 13 of hospitalization): decreased from high-flow to low-flow nasal cannula
Infusion-related or systemic side effects ([5]; single patient): No infusion-related or systemic side effects
Lymphopenia post lenzilumab ([5]; single patient): appeared to improve
Time from lenzilumab to discharge home ([5]; single patient, discharged on 4L nasal cannula): Sixteen
Survival, Kaplan-Meier event estimate (mortality) (COVID-19 pneumonia; mITT, lenzilumab arm, day 28, placebo 13.9): 9.6%
Ventilator-Free Survival, Kaplan-Meier event estimate (IMV and/or death) (COVID-19 pneumonia; mITT, lenzilumab arm, day 28, placebo 22.1): 15.6%
SAEs attributed to lenzilumab (COVID-19 pneumonia; phase 3 trial): none were attributed to lenzilumab
Safety and tolerability (COVID-19 pneumonia; phase 3 trial): safe and well-tolerated
Increased likelihood of survival without IMV (COVID-19 pneumonia; relative to placebo, mITT): 54%
Increased likelihood of survival (COVID-19 pneumonia; relative to placebo, not statistically significant): 39% (NS)
Acute kidney injury ([6]; Grade ≥3, Lenzilumab N = 255): 5 (2.0) n (%)
Acute respiratory distress syndrome ([6]; Grade ≥3, Lenzilumab N = 255): 4 (1.6) n (%)
Acute respiratory failure ([6]; Grade ≥3, Lenzilumab N = 255): 18 (7.1) n (%)
Cardiac arrest ([6]; Grade ≥3, Lenzilumab N = 255): 8 (3.1) n (%)
Cardiac disorders ([6]; Grade ≥3, Lenzilumab N = 255): 15 (5.9) n (%)
Cardio-respiratory arrest ([6]; Grade ≥3, Lenzilumab N = 255): 3 (1.2) n (%)
General disorders and administration site conditions ([6]; Grade ≥3, Lenzilumab N = 255): 4 (1.6) n (%)
Hypotension ([6]; Grade ≥3, Lenzilumab N = 255): 2 (0.8) n (%)
Hypoxia ([6]; Grade ≥3, Lenzilumab N = 255): 15 (5.9) n (%)
Infections and infestations ([6]; Grade ≥3, Lenzilumab N = 255): 10 (3.9) n (%)
Multiple organ dysfunction syndrome ([6]; Grade ≥3, Lenzilumab N = 255): 3 (1.2) n (%)
Pneumonia bacterial ([6]; Grade ≥3, Lenzilumab N = 255): 0 (0.0) n (%)
Pulmonary embolism ([6]; Grade ≥3, Lenzilumab N = 255): 5 (2.0) n (%)
Renal and urinary disorders ([6]; Grade ≥3, Lenzilumab N = 255): 5 (2.0) n (%)
Respiratory failure ([6]; Grade ≥3, Lenzilumab N = 255): 24 (9.4) n (%)
Respiratory, thoracic and mediastinal disorders ([6]; Grade ≥3, Lenzilumab N = 255): 64 (25.1) n (%)
Sepsis ([6]; Grade ≥3, Lenzilumab N = 255): 2 (0.8) n (%)
Septic shock ([6]; Grade ≥3, Lenzilumab N = 255): 5 (2.0) n (%)
Shock ([6]; Grade ≥3, Lenzilumab N = 255): 3 (1.2) n (%)
Vascular disorders ([6]; Grade ≥3, Lenzilumab N = 255): 10 (3.9) n (%)
Kaplan-Meier Estimate of Failure to Achieve SWOV ([6]; ITT (n = 520)): 18.9%
Kaplan-Meier Estimate of Failure to Achieve SWOV ([6]; ITT subgroup n = 338, placebo 27.8%): 17.8%
Kaplan-Meier Estimate of Failure to Achieve SWOV ([6]; ITT, CRP <150 mg/L and age <85 (n = 359), placebo 22.6%): 11.5%
Safety and tolerability ([6]; LIVE-AIR): safe and well tolerated
Any AE ≥ Grade 3 ([6]; Lenzilumab N = 255): 68 (26.7) n (%)
Serum CRP levels following treatment ([6]; from two days after administration for 28 days, only in baseline CRP<150 mg/L): decreased CRP levels
Attributable serious adverse events ([6]; incl. hematologic, liver enzyme abnormalities, pulmonary alveolar proteinosis, infection): no attributable serious adverse events
Time to Recovery ([6]; mITT (n = 236)): 8 median days
Mortality ([6]; mITT (n = 236), placebo 13.9): 9.6%
Incidence IMV, ECMO or death ([6]; mITT (n = 236), placebo 21.4): 15.4%
Kaplan-Meier Estimate of Failure to Achieve SWOV ([6]; mITT (n = 479), Day 28, placebo 22.1%): 15.6%
Kaplan-Meier Estimate of Failure to Achieve SWOV ([6]; mITT subgroup n = 331 (remdesivir plus steroids per text), placebo 26.9%): 16.3%
Kaplan-Meier Estimate of Failure to Achieve SWOV ([6]; mITT, >2 days prior (n = 165), placebo 14.4%): 13.7%
Kaplan-Meier Estimate of Failure to Achieve SWOV ([6]; mITT, CRP <150 mg/L and age <85 (n = 336), placebo 21.1%): 8.5%
Time to Recovery ([6]; mITT, CRP <150 mg/L, Age <85 (n = 157)): 7 median days
Mortality ([6]; mITT, CRP <150 mg/L, Age <85 (n = 157), placebo 13.8): 6.6%
Incidence IMV, ECMO or death ([6]; mITT, CRP <150 mg/L, Age <85 (n = 157), placebo 19.5): 7.2%
Improvement in Time to Recovery ([6]; mITT, CRP<150 mg/L and age<85): 36%
Kaplan-Meier Estimate of Failure to Achieve SWOV ([6]; mITT, hospitalized 2 days prior or less (n = 297), placebo 27.6%): 16.5%
Infusion-related reactions ([6]; safety population): no infusion-related reactions
Serious adverse events, subjects ([6]; safety population, placebo 29.6%): 24.7%
Adverse events ≥Grade 3, subjects ([6]; safety population, placebo 32.7%): 26.7%
Improvement in SWOV ([6]; subjects hospitalized <2 days): 88%
2 point improvement in the NIAID eight point ordinal hospital scale (SARS-CoV-2 infection): faster
Number of hospital days (SARS-CoV-2 infection): reduction
Permanent pulmonary function impairment (SARS-CoV-2 infection): reduction
Time to recovery (6, 7, or 8 on the eight point ordinal hospital scale) (SARS-CoV-2 infection): faster
Mortality rates (SARS-CoV-2 infection; [11]): reduction
Patients requiring ICU admission (SARS-CoV-2 infection; [11]): reduction
Patients requiring mechanical ventilation (SARS-CoV-2 infection; [11]): reduction
Infusion reactions ([7]; 12 patients): no infusion reactions
Treatment-emergent adverse events attributable to lenzilumab ([7]; 12 patients): No treatment-emergent adverse events attributable to lenzilumab
Ventilator-free survival vs untreated group ([7]; Kaplan-Meier, log-rank P=0.06): favored the lenzilumab cohort
Days to resolution of fever ([7]; Lenzilumab group n = 12): 2 days
Incidence of IMV ([7]; Lenzilumab group n = 12): (8%)
Incidence of IMV and/or death, number of patients ([7]; Lenzilumab group n = 12): 1
Incidence of IMV, number of patients ([7]; Lenzilumab group n = 12): 1
Incidence of clinical improvement, number of patients ([7]; Lenzilumab group n = 12): 11
Incidence of death ([7]; Lenzilumab group n = 12): (8%)
Incidence of death, number of patients ([7]; Lenzilumab group n = 12): 1
Patients free of ARDS (SpO2/FiO2 of 315 or higher) by the end of observation ([7]; Lenzilumab group n = 12): 92%
Days to clinical improvement (median) [7, 12]: 5 days
Days to discharge from hospital (median) [7, 12]: 5 days
CRP reduction (mean) ([7]; after 4 days of treatment, control −0.95): 135.8
IL-6 concentration on day 4 following lenzilumab ([7]; baseline 28.6 pg/mL): 8.52 pg/mL
Mean absolute neutrophil count on day 4 post lenzilumab ([7]; baseline 5.1): 4.8e+09 L⁻¹
Mean hemoglobin on day 4 post lenzilumab ([7]; baseline 12.9): 11.4 g/dL
IL-6 reduction ([7]; baseline vs day 4): 20.1
ALC increase (mean) ([7]; baseline vs day 4, control 0.03): 0.46 × 10*9/L
Mean temperature reduction ([7]; baseline vs day 4, control 0.459): 1.075
PLT increase (mean) ([7]; baseline vs day 4, control 63.2): 52.5
Mean CRP after treatment ([7]; day 4, baseline 172.2 mg/L): 36.4 mg/L
Cytokines and chemokines involved in the cytokine storm [7, 10]: significant reduction
Mean SpO2/FiO2 over time post-treatment vs untreated [7, 13]: statistically significant difference
Proportion of patients free of ARDS over time vs untreated [7, 13]: significantly increased
Binding affinity [8]: picomolar range
Kd [8]: 0.025 nM
Off-rate [8]: slow off-rate
No Observed Adverse Effect Level (NOAEL) [9]: > 100 mg/kg/week
